For one molecule, Kd results are on record in article PMC3244695 (2012).

The assay addresses T1, NgR1 (Mus musculus, UniProt Q99PI8).
T1 chain: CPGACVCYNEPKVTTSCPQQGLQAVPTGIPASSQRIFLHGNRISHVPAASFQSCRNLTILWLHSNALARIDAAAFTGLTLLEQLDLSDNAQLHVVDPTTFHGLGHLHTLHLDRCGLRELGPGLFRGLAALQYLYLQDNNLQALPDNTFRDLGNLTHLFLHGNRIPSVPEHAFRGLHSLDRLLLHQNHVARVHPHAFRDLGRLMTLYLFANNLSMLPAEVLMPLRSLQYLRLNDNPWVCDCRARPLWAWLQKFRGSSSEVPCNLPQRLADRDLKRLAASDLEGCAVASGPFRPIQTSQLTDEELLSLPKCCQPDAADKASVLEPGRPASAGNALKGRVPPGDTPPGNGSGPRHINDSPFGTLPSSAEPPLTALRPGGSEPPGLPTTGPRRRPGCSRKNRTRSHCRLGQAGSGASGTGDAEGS
As to the kind of experiment: AP-fusion cell-surface saturation binding.

B1: LOTUS (Crtac1B) 29-602 (antibody)
chain: SQRAEPMFTAVTNSVLPPDYDSNPTQLNYGVAVTDVDHDGDFEIVVAGYTGPNLVLKYNRAQNRLVNIAVDERSSPYYALRDRQGNAIGVTACDIDGDGREEIYFLNTNNAFSGVATYTDKLFKFRNNRWEDILSDDVNVARGVASLFAGRSVACVDRTGSGRYSIYIANYAYGDVGPDALIEMDPEASDLSRGILALRDVAAEAGVSKYTAGRGVSVGPILSSSASDIFCDNENGPNFLFHNQGNGTFVDTAASAGVDDPHQHGRGVALADFNRDGKVDIVYGNWNGPHRLYLQMSAHGKVRFRDIASPKFSTPSPVRTVIAADFDNDQELEVFFNNIAYRSSSANRLFRVIRREHGDPLIEELNPGDALEPEGRGTGGVVTDFDGDGMLDLILSHGESMAQPLSVFRGNQGFSNNWLRVVPRTRFGAFARGAKVVLYTKKSGAHLRIIDGGSGYLCEMEPVAHFGLGRDEASSVEVTWPDGKMVSRSVASEEMNSVLEILYPQDEDKLQNTAPLECGQGFSQQDNGHCMDTNECIQFPFVCPRDKPVCVNTYGSYRCRTNKRCNRGYEPNED
modifications: alkaline phosphatase fusion of LOTUS
B1 yielded a Kd of about 6.8 nM.
